Laboratory results reported in US8728472 (University of Texas, dated 2014).

Columns and labels:
[1] = target: T1, Cdk5 expressed in HEK293T cells from a transfected eukaryotic expression plasmid (UniProt Q00535 1-292); assay: immunohistochemical staining of transfected HEK293T cells (FIG. 2C)
T1 construct: also called cyclin-dependent kinase 5

[2] = target: T2, p25 generated in rat brain or rat striatal neurons by ischemia (MCAO or OGD) (rat, UniProt P61809 99-307 (mouse entry)); assay: detection of p25 in stroked rat brain; immunostains of striatum and cortex (FIG. 7D)
T2 construct: Endogenous protein in tissue sections, lysates and primary cultures; also called p25 generated by MCAO; p25 generated in response to focal ischemia

[3] = target: T3, p35 (Mus musculus (Mouse), UniProt P61809 1-307); assay: immunoblot of striatal lysates from p25 over-expressing mice (FIG. 2B)
T3 construct: also called Cdk5 cofactor p35
T3 sequence (P61809 whole entry): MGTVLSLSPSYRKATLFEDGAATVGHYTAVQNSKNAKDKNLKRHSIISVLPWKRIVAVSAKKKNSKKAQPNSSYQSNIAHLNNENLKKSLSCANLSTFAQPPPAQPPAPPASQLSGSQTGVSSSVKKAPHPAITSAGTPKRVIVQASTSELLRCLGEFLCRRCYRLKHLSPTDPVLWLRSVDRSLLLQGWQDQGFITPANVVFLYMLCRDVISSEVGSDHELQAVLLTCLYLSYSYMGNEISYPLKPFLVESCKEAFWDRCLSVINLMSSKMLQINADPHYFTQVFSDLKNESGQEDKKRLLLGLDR

T2 sequence (P61809 99-307 limits assumed): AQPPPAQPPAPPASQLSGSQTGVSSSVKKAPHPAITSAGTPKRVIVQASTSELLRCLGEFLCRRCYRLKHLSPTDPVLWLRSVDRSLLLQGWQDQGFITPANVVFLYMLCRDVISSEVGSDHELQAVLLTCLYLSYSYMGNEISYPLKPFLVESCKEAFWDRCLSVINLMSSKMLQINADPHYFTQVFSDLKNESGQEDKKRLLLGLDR

binding result [1]: no binding
binding result [2]: binds
binding result [3]: no binding
B1: anti-p25 monoclonal antibody 1C4 (antibody, V domains shown)
VH: QIQLEESGPELRKPGETVRISCKASGYTFTTAGMQWVQKMPGTGLKWIGWINTHSGVPKYAGEFTGRFDFSLETSASTAYLQIVNLKNEDTATYFCARYGKFGEMDYWGQGTSVTVSS
VL: IVMTQSPASLAVSLGQRATISCRSSETVDSDGNSFMHWYQQKPGQSPKLLLYLASTLESGVPARFSGSGSRTDFTLTIDPVEADDAATYYCHQNNEDPTFGGGTKLEIKR
notes: Mouse monoclonal antibody from hybridoma 1C4; also called p25 mAb; anti-p25 antibody
